Measured values reported in paper doi:10.64898/2025.12.17.694949, “Chiral inversion mutagenesis identifies geometrically constrained residues within self-associating low-complexity domains” (bioRxiv, 2025).

T1: wild-type glutathione S-transferase (GST)-EMD LCD fusion protein
T1 sequence (P50402 whole entry, species assumed, looked up): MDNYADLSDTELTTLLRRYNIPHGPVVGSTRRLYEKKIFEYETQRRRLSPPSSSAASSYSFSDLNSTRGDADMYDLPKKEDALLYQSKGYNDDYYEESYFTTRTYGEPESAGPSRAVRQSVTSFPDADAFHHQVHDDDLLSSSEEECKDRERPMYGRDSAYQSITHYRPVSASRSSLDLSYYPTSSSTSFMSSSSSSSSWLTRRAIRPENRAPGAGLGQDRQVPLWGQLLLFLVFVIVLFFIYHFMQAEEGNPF

B1: synthetic NEFL head domain 5xD_(22-30) (protein)
chain: SSFSYEPYYSTSYKRRYVETPRVHISSVRCGYSTARSAYSSYSAPVSSSLSVRRSYSSSSGSLMPSLENLELS
B2: synthetic NEFL head domain 5xD_(43-51) (protein)
chain: B1 chain
B3: synthetic NEFL head domain 5xD_(33-41) (protein)
chain: B1 chain
B4: synthetic NEFL head domain 5xD_(63-71) (protein)
chain: B1 chain
B5: synthetic NEFL head domain 5xD_(53-63) (protein)
chain: B1 chain
B6: untagged semi-synthetic EMD LCD 3xD_(203-207) (protein)
chain: RRLSPPSSSAASSYSFSDLNSTRGDADMYDLPKKEDALLYQSKGYNDDYYEESYFTTRTYGEPESAGPSRAVRQSVTSFPDADAFHHQVHDDDLLSSSEEECKDRERPMYGRDSAYQSITHYRPVSASRSSLDLSYYPTSSSTCFMSSSSSSSSWLTRRAIRPENRAPGAGLGQER
B7: untagged semi-synthetic EMD LCD 3xD_(191-195) (protein)
chain: B6 chain
B8: untagged semi-synthetic EMD LCD 3xD_(195-199) (protein)
chain: B6 chain
B9: untagged semi-synthetic EMD LCD 3xD_(199-203) (protein)
chain: B6 chain
B10: HA-tagged semi-synthetic EMD LCD 3xD_(191-195) (domain or fragment)
chain: B6 chain
modifications: three D-amino acids at alternating positions within 191-195
B11: HA-tagged semi-synthetic EMD LCD 3xD_(207-211) (domain or fragment)
chain: B6 chain
modifications: three D-amino acids at alternating positions within 207-211
B12: HA-tagged semi-synthetic EMD LCD 3xD_(211-215) (domain or fragment)
chain: B6 chain
modifications: three D-amino acids at alternating positions within 211-215
B13: HA-tagged semi-synthetic EMD LCD 3xD_(199-203) (domain or fragment)
chain: B6 chain
modifications: three D-amino acids at alternating positions within 199-203
B14: HA-tagged semi-synthetic EMD LCD 3xD_(203-207) (domain or fragment)
chain: B6 chain
modifications: three D-amino acids at alternating positions within 203-207
B15: HA-tagged semi-synthetic EMD LCD 3xD_(195-199) (domain or fragment)
chain: B6 chain
modifications: three D-amino acids at alternating positions within 195-199
B16: untagged semi-synthetic EMD LCD (residues 46-221), all L- wild-type (domain or fragment, UniProt P50402 46-221, looked up)
chain: B6 chain
notes: Emerin (EMD) low-complexity domain, residues 46-221 (P1 46-188 recombinant, P2 189-221 synthetic); P2 made on Rink amide resin (C-terminal amide surmised); source: RP-HPLC purified

biological target: P07196; experiment: turbidity (absorbance at 395 nm); synthetic NEFL head domain 5xD ChIM library, 100 μM LCD (n=3); settings: other: turbidity (absorbance at 395 nm)

Molecule	fold decrease in turbidity relative to wild-type
B1	with 9.1-fold and 20-fold decreases in turbidity relative to wild-type, respectively
B2	with 2.7-fold, 1.6-fold, and 1-fold relative decreases in turbidity, respectively
B3	with 9.1-fold and 20-fold decreases in turbidity relative to wild-type, respectively
B4	with 2.7-fold, 1.6-fold, and 1-fold relative decreases in turbidity, respectively
B5	with 2.7-fold, 1.6-fold, and 1-fold relative decreases in turbidity, respectively

biological target: P50402; experiment: turbidity (absorbance at 395 nm); untagged semi-synthetic EMD LCD 3xD ChIM library, 50 μM LCD (n=3); settings: other: turbidity (absorbance at 395 nm)

Molecule	fold decrease in turbidity relative to wild-type
B6	displays a modest 1.4-fold decrease in turbidity
B7	13.3-, 2.8-, and 2.1-fold decreases in turbidity
B8	13.3-, 2.8-, and 2.1-fold decreases in turbidity
B9	13.3-, 2.8-, and 2.1-fold decreases in turbidity

system: not listed separately; experiment: turbidity (absorbance at 395 nm); untagged recombinant EMD LCD 3xPro library, 60 μM LCD, transferred from denaturing to native Tris buffer (n=3); settings: other: turbidity (absorbance at 395 nm)

Molecule	fold decrease in turbidity relative to wild-type
untagged EMD LCD 3xPro_(188-191)	reduce turbidity by 107.6-, 16.6-, 34.7-, and 14.3-fold, respectively
untagged EMD LCD 3xPro_(183-186)	modestly reduces turbidity by 2.8-fold relative to wild-type
untagged EMD LCD 3xPro_(203-206)	reduce turbidity by 107.6-, 16.6-, 34.7-, and 14.3-fold, respectively
untagged EMD LCD 3xPro_(193-196)	reduce turbidity by 107.6-, 16.6-, 34.7-, and 14.3-fold, respectively
untagged EMD LCD 3xPro_(198-201)	reduce turbidity by 107.6-, 16.6-, 34.7-, and 14.3-fold, respectively

biological target: T1, wild-type glutathione S-transferase (GST)-EMD LCD fusion protein; experiment: pull-down; wild-type GST-EMD LCD immobilized on glutathione resin, incubated with HA-tagged EMD LCD prey (50 nM), washed with binding buffer, eluted with GSH; Western blot against HA in eluent relative to input, densitometry (n=3); settings: not given

fold reduction of pulldown relative to wild-type [fold]	Molecule
8.8	B10
1.8	B11
1.7	B12
6.2	B13
3.6	B14
7.9	B15

Biological target: the molecule itself
Experiment: turbidity (absorbance at 395 nm); untagged semi-synthetic EMD LCD 3xD ChIM library, 50 μM LCD (n=3)
Settings: not given

Molecule	binding result
B16	binds

biological target: T1, wild-type glutathione S-transferase (GST)-EMD LCD fusion protein; experiment: pull-down; wild-type GST-EMD LCD immobilized on glutathione resin, incubated with HA-tagged EMD LCD prey (50 nM), washed with binding buffer, eluted with GSH; Western blot against HA in eluent relative to input, densitometry (n=3); settings: not given; remark: another data set of the same source

fold reduction of pulldown relative to wild-type [fold]	Molecule
5.9	HA-tagged EMD LCD 3xPro_(193-196) (domain or fragment)
3.4	HA-tagged EMD LCD 3xPro_(198-201) (domain or fragment)
2.2	HA-tagged EMD LCD 3xPro_(183-186) (domain or fragment)
5	HA-tagged EMD LCD 3xPro_(188-191) (domain or fragment)

biological target: T1, wild-type glutathione S-transferase (GST)-EMD LCD fusion protein; experiment: GST pulldown, Western blot against HA, densitometry; settings: HA-tagged 3xPro EMD LCD prey 50 nM; n=3; parent: est. 0.26; read off a plot

response [Fraction IP]	Molecule
0.18	HA-tagged EMD LCD, wild-type (recombinant) 3xPro 203-205 (label as printed; insertion of three prolines, not substitution)
0.21	HA-tagged EMD LCD, wild-type (recombinant) 3xPro 208-211 (insertion, not substitution: ...aa208(Pro)aa209(Pro)aa210(Pro)aa211...)
0.21	HA-tagged EMD LCD, wild-type (recombinant) 3xPro 178-181 (insertion, not substitution: ...aa178(Pro)aa179(Pro)aa180(Pro)aa181...)
